In patent publication US9644019B2, “Compounds for treating cardiac damage after ischaemia/reperfusion” (priority 2010, dated 2017):

How the values were obtained:
EMMPRIN = molecular target: T1, EMMPRIN (Mus musculus, UniProt P18572); test: AP-9 peptide / EMMPRIN co-localization in MAEC cells; assay type: binding; settings: DETA-NO 100 μM overnight, 0.08 mg/ml AP-9 peptide
T1 construct: Said cells were incubated overnight with the nitric oxide donor (DETA-NO) (100 μM) to induce EMMPRIN expression; endogenous in cells; host or cells: MAEC (mouse aortic endothelial cells), fixed with 4% PFA
T1 sequence (P18572 22-273 isoform P18572-2 limits assumed): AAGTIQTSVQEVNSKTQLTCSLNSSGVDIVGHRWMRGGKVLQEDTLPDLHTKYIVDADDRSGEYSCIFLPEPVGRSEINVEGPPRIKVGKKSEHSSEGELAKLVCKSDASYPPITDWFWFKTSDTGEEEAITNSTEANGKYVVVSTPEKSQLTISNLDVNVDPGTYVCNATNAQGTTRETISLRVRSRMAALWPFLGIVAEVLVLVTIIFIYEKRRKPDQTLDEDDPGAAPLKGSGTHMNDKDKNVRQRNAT
Method: The MAEC cells were incubated overnight with the nitric oxide donor (DETA-NO) (100 μM) to induce EMMPRIN expression (right panel). The MAEC cells without DETA-NO were used as a control (left panel). The MAEC cells were fixed with 4% PFA and incubated with 0.08 mg/ml of AP-9 peptide. EMMPRIN expression was detected using an anti-EMMPRIN antibody (1:1000), observing that both signals co-localize (right panel, top right square). The cores were stained with DAPI.
MAEC cells (mouse aortic endothelial cells) were used for the in vitro assays. Said cells were incubated overnight with the nitric oxide donor (DETA-NO) (100 μM) to induce EMMPRIN expression. The MAEC cells without DETA-NO were used as a control. The MAEC cells were fixed with 4% PFA and incubated with 0.08 mg/ml of AP-9 peptide. EMMPRIN expression was subsequently detected using an anti-EMMPRIN antibody (1:1000).

[1] = system: EMMPRIN-induced MMP-9 expression; test: EMMPRIN-induced MMP-9 expression in MAEC cells (anti-MMP-9 immunodetection); assay type: cell-based, mouse; settings: 100 μM DETA-NO, AP-9 peptide 0.08 mg/ml overnight, vs PBS
Method: MAEC cells were incubated with 100 μM of DETA-NO to induce EMMPRIN expression (B, D). MAEC cells without DETA-NO were used as a control (A, C). After 3 hours of treatment with DETA-NO, the MAEC cells were incubated overnight with AP-9 peptide (0.08 mg/ml) (C, D) or with PBS (A, B). The MAEC cells were fixed with 4% PFA, and MMP-9 expression was detected using an anti-MMP-9 antibody (1:1000). […] The cores were stained with DAPI.
Likewise, to ascertain if AP-9 peptide inhibited EMMPRIN-induced MMP-9 expression, MAEC cells were incubated with 100 μM of DETA-NO to induce EMMPRIN expression. After 3 hours of treatment with DETA-NO, the MAEC cells were incubated overnight with AP-9 peptide (0.08 mg/ml) or with PBS as a control without peptide. MAEC cells without DETA-NO were used as a control. Finally, the MAEC cells were fixed with 4% PFA and MMP-9 expression was detected using an anti-MMP-9 antibody (1:1000).

## YKLPGHHHHYRP (SEQ ID NO: 3) [AP-9 peptide, EMMPRIN antagonist peptide described in the literature]
EMMPRIN
  binding to EMMPRIN (co-localization of signals): binds specifically
[1]
  EMMPRIN-induced MMP-9 expression: inhibition
